Data taken from publication PMC2953525, “Subtle Alterations in PCNA-Partner Interactions Severely Impair DNA Replication and Repair” (PLoS Biology, 2010).
Positions count from the first letter of the chain named.

Assays:
Rad30 PIP peptide = assay: SPR analysis of PCNA binding to PIP peptide; parameters: species or system yeast
From the text: (§1) To quantify differences in binding affinities of the PCNA mutants relative to the WT, we characterized four PCNA mutants with increased affinity for PIP peptides derived from Rad30, Pol32, Msh6, and Ung1 partners using SPR. These mutants were overexpressed in E. coli, purified by affinity chromatography, and immobilized on an SPR sensor chip for binding characterization. SPR binding analysis enabled direct and sensitive measurement of interaction affinities relative to the Y2H system and indicated an up to 8-fold increase in binding affinity for the different PIP peptides, relative to WT PCNA (Table 1). Such analysis allowed the detection of a significant decrease in the Rad30 PIP peptide dissociation rate in the Pol30-Rad30E9p mutant relative to the WT, indicating a ∼9-fold increase in the lifetime of the PCNA-Rad30 complex (see Table 1). Collectively the ELISA, Y2H, and SPR assays validated and quantified the increase in mutant PCNA binding affinities, relative to WT PCNA.
(§2) Protein interaction assays were carried out using the ProteOn XPR36 (Bio-Rad) instrument. WT or PCNA mutants (0.4 to 5.2 fmol) were immobilized on the surface of a GLM sensor chip by a carbodiimide-activated succinimide-coupling method, as specified by the manufacturer. All SPR experiments were performed by flowing 150 µl of the target peptide at a flow rate of 30 µl/min onto the PCNA-bound chip. Different concentrations (5–5,000 nM) of PIP peptides (Table 1) were injected over the PCNA chip, and binding parameters were determined using ProteOn XPR36 software (Bio-Rad). The ligand (PCNA) and analyte (peptide) buffers were PBST and 150 mM NaCl, 1 mM EDTA, 0.01% Tween-80, 30 mM Hepes, pH 7.5, respectively.

Pol32 PIP peptide = assay: SPR analysis of PCNA binding to PIP peptide; parameters: species or system yeast; conditions: peptide 5-5,000 nM
From the text: as §1, §2

Msh6 PIP peptide = assay: SPR analysis of PCNA binding to PIP peptide; parameters: species or system yeast; conditions: peptide 5-5,000 nM
From the text: as §1, §2

CAN1 gene = assay: Spontaneous mutation rate, CAN1 reporter assay, fluctuation analysis; format: cell-based, yeast; conditions: for Fold Increase Relative to WT (mutation rate, CAN1 locus) / Mutation Rate (CAN1 locus): Table 2; for Mutation Rate (CAN1 locus): median, brackets = 95% confidence interval, at least 25 independent determinations; for Spontaneous Mutation Rate Can^R (Fold Increase): Table 1, compared to the WT POL30 strain
From the text: It was previously shown that PCNA contains another site of regulation (i.e. K164) that is modulated by ubiquitination or SUMOylation (Figure 1B) and that is crucial for the recruitment of TLS polymerases,[37]. To test whether the K164 regulatory site is active in the PCNA mutant strains, we examined the spontaneous mutation rate in these strains (Table 1). Increase in spontaneous mutation rate can indicate the recruitment of TLS polymerases to PCNA through K164 ubiquitination,[37]. Alternatively, these mutants can indirectly affect the spontaneous mutation rate by reducing DNA replication processivity and causing replication fork stalling, thereby leading to TLS recruitment. These mutants can also indirectly alter Pol-δ or Pol-ε proofreading leading to TLS recruitment. We measured the spontaneous mutation rate using the CAN1 reporter assay by monitoring the ability of the PCNA mutant strains to grow in the presence of canavanine, a toxic analogue of arginine. […] To examine whether Polζ, the major TLS polymerase,[37], is recruited in vivo to PCNA mutants showing increased affinity for Rad27 and Pol32 (pol30-Rad27E6 and pol30-Pol32E5, Table 1) upon K164 ubiquitination, we measured the spontaneous mutation rates of these mutant strains on the background of either mutated rev3 encoding the catalytic subunit of Polζ or mutated rad18 encoding the K164 ubiquitin ligase or K164R mutation (Figure 7, Table 2).
(§3) Novel haploids containing PCNA mutants were generated using the plasmid shuffling method. Briefly, a pol30::KanMX magic marker heterozygote diploid strain BY4743 (Open Biosystem) was transformed with plasmid pRS316-POL30. Following dissection of the diploid, a haploid containing the CAN+ gene and plasmid pRS316-POL30 as a sole source of PCNA was generated. This host strain was transformed with selected pRS315-pol30 mutants, plated on SC-Ura-Leu plates, followed by replica plating to SC-Leu+5FOA plates. Haploids, containing PCNA mutants as a sole source, were further verified by plating on either SC-Leu or SC-Ura plates. For testing selected PCNA mutants, a haploid containing rad27::HYG, rad30::HYG, pol32::HYG, msh6::HYG, or ung1::HYG were generated using plasmid pAG32 by conventional genetic approaches. Growth of the PCNA mutant strains in the presence of 120 mM HU (Toronto Research Chemicals) or 0.02% MMS (Sigma) was performed as described. To examine the effects of partner overexpression on pol30 mutant strains, these strains were transformed with various plasmids containing GST-tagged PCNA partner encoding genes under the control of a GAL1/10 inducible promoter, as previously described. Overnight cultures were plated in serial dilutions on SC-Ura containing either glucose or galactose with or without DNA-damaging agents, as described above.
The mutation rates for the different pol30 mutant strains described in this study were determined by fluctuation test analysis using the Lea and Coulson method,[48]. The different strains were plated as single colonies on SC-Leu plates and allowed to grow for 3 d at 30°C. At least 25 single colonies from each strain were excised from the plate and resuspended in 1 ml of sterile water to an O.D600 of 0.7. Appropriate dilutions of the cells were then plated on SC-Leu and SC-Leu-Arg+canavanine ([…]) to obtain the number of viable cells (Nt) and the number of canavanine-resistant cells (r), respectively. Using the Lea and Coulson method, the number of mutations (m) per colony was derived from the number of canavanine resistant-colonies (r) across parallel cultures, using the following equation: […]. The m values were then used to calculate the mutation rate, M, using the following equation: M = m/Nt, where Nt is the average number of viable cells per plating. The different M values were sorted to obtain the median. […]

yeast strains = assay: Growth sensitivity of PCNA mutant strains to MMS and HU; format: cell-based; conditions: for effect of overexpression of Rad27, Rad30, Pol32, and Msh6 on growth sensitivity to DNA damaging agents: Figure S9, GAL1/10 inducible GST-tagged partners; for effect of rad27 deletion on growth sensitivity of the mutant strain: Figure S8, parent vs rad27-deleted strains; for effect of rad30 deletion on strain growth sensitivity phenotype: Figure 6B
From the text: Next, we examined the sensitivity of strains containing single deletions of each of the five different partners on a WT PCNA background. […] We first examined whether the rad27 deletion can suppress the lethality of a strain containing the pol30-Rad27L1 or pol30-Rad27L2 mutants (Figure 6A). […] In addition, we examined whether rad30 deletion, ung1 deletion, and msh6 deletion can suppress the phenotypes of the pol30 mutants with increased affinity to Rad30, Ung1, and Msh6, respectively (Figure 6B–D). […] However, since the suppression of the strain phenotypes was not complete, additional factors, such as minor effects of the mutations on other PCNA-partner interactions, may play a partial role in the sensitivity phenotype of the examined pol30 mutants. […] We also examined whether overexpression of different partners can suppress the growth sensitivity of the pol30 mutants, however no suppression was observed (Figure S9).
as §3

[1] = footnote d, PCNA immobilized on GLM chip

## POL30: wild-type yeast PCNA (POL30), IDCL sequence DIDADFLKIEEL
Rad30 PIP peptide; PCNA immobilized, peptide 5-5,000 nM, ProteOn XPR36, read-out: Binding affinity for Rad30 PIP peptide (SPR)
  Kd: 170 nM
Rad30 PIP peptide; SPR
  off-rate (kd) of the Rad30 PIP peptide: 0.03 s⁻¹
Pol32 PIP peptide; PCNA immobilized, ProteOn XPR36, read-out: Binding affinity for Pol32 PIP peptide (SPR)
  Kd: 360 nM
Msh6 PIP peptide; PCNA immobilized, ProteOn XPR36, read-out: Binding affinity for Msh6 PIP peptide (SPR)
  Kd: 3000 nM
CAN1 gene
  Fold Increase Relative to WT (mutation rate, CAN1 locus): 1 fold
  Mutation Rate (CAN1 locus): 1.5×10^−7 [1.5, 2.2]
Yeast strains
  effect of overexpression of Rad27, Rad30, Pol32, and Msh6 on growth sensitivity to DNA damaging agents: did not reduce the growth sensitivity

B1: pol30-Msh6E6: PCNA mutant evolved for Msh6, IDCL sequence DYDKDLLKIIEL (protein)
chain: MLEAKFEEASLFKRIIDGFKDCVQLVNFQCKEDGIIAQAVDDSRVLLVSLEIGVEAFQEYRCDHPVTLGMDLTSLSKILRCGNNTDTLTLIADNTPDSIILLFEDTKKDRIAEYSLKLMDYDKDLLKIIELQYDSTLSLPSSEFSKIVRDLSQLSDSINIMITKETIKFVADGDIGSGSVIIKPFVDMEHPETSIKLEMDQPVDLTFGAKYLLDIIKGSSLSDRVGIRLSSEAPALFQFDLKSGFLQFFLAPKFNDEE
modifications: left off: Gal4 activation domain, end not stated, kept
Msh6 PIP peptide; [1]
  Fold increase in binding affinity for Msh6 PIP peptide relative to WT PCNA (SPR): 1.6 fold
CAN1 gene
  Spontaneous Mutation Rate Can^R (Fold Increase): 4.1 fold

B2: pol30-Rad27E6: PCNA mutant evolved for Rad27, IDCL sequence DGDYDILKIREL (protein)
chain: B1 chain with Y121G, K123Y, L125I, I129R
modifications: left off: Gal4 activation domain, end not stated, kept
CAN1 gene
  Spontaneous Mutation Rate Can^R (Fold Increase): 8 fold
  Mutation Rate (CAN1 locus): 1.2×10^−6 [8.0, 13.9]
Yeast strains
  effect of rad27 deletion on growth sensitivity of the mutant strain: only weak effect
  effect of overexpression of Rad27, Rad30, Pol32, and Msh6 on growth sensitivity to DNA damaging agents: did not reduce the growth sensitivity

B3: pol30-Pol32E9 (protein)
chain: B1 chain with Y121N, K123V, L125S
modifications: left off: Gal4 activation domain, end not stated, kept
Pol32 PIP peptide; [1]
  Fold increase in binding affinity for Pol32 PIP peptide relative to WT PCNA (SPR): 2 fold
CAN1 gene
  Spontaneous Mutation Rate Can^R (Fold Increase): 4 fold

B4: pol30-79: previously studied PCNA mutant with decreased partner binding, IDCL sequence DIDADFAKAEEL (protein)
chain: B1 chain with Y121I, K123A, L125F, L126A, I128A, I129E
modifications: left off: Gal4 activation domain, end not stated, kept
CAN1 gene
  Spontaneous Mutation Rate Can^R (Fold Increase): 2.2 fold
Yeast strains
  effect of overexpression of Rad27, Rad30, Pol32, and Msh6 on growth sensitivity to DNA damaging agents: did not reduce the growth sensitivity

B5: pol30-Rad30E2: PCNA mutant evolved for Rad30, IDCL sequence DDDWDFLKILEL (protein)
chain: B1 chain with Y121D, K123W, L125F, I129L
modifications: left off: Gal4 activation domain, end not stated, kept
CAN1 gene
  Spontaneous Mutation Rate Can^R (Fold Increase): 10 fold
Yeast strains
  effect of rad30 deletion on strain growth sensitivity phenotype: suppression
  effect of rad27 deletion on growth sensitivity of the mutant strain: suppression of the growth sensitivity

B6: pol30-Rad30E9: PCNA mutant evolved for Rad30, IDCL sequence DNDWDFLKIDEL (protein)
chain: B1 chain with Y121N, K123W, L125F, I129D
modifications: left off: Gal4 activation domain, end not stated, kept
Rad30 PIP peptide; SPR
  off-rate (kd) of the Rad30 PIP peptide: 0.00321 s⁻¹
Rad30 PIP peptide; SPR, from Rad30 PIP peptide dissociation rate, relative to the WT
  fold increase in the lifetime of the PCNA-Rad30 complex: ~9 fold
Rad30 PIP peptide; footnote d, PCNA immobilized on GLM chip, peptide 5-5,000 nM
  Fold increase in binding affinity for Rad30 PIP peptide relative to WT PCNA (SPR): 8.5 fold
CAN1 gene
  Spontaneous Mutation Rate Can^R (Fold Increase): 15.3 fold
Yeast strains
  effect of rad30 deletion on strain growth sensitivity phenotype: suppression

B7: pol30-Msh6E2: PCNA mutant evolved for Msh6, IDCL sequence DYDRDMLKISEL (protein)
chain: B1 chain with K123R, L125M, I129S
modifications: left off: Gal4 activation domain, end not stated, kept
CAN1 gene; Figure 6D
  effect of msh6 deletion on spontaneous mutation rate: Suppression
CAN1 gene
  Spontaneous Mutation Rate Can^R (Fold Increase): 7.3 fold
Yeast strains
  effect of rad27 deletion on growth sensitivity of the mutant strain: only weak effect

B8: pol30-Pol32E5: PCNA mutant evolved for Pol32, IDCL sequence DADNDFLKISEL (protein)
chain: B1 chain with Y121A, K123N, L125F, I129S
modifications: left off: Gal4 activation domain, end not stated, kept
CAN1 gene
  Spontaneous Mutation Rate Can^R (Fold Increase): 13.3 fold
  Fold Increase Relative to WT (mutation rate, CAN1 locus): 13 fold
Yeast strains
  effect of overexpression of Rad27, Rad30, Pol32, and Msh6 on growth sensitivity to DNA damaging agents: did not reduce the growth sensitivity
